Target: the molecule itself
Experiment: SEC; Superdex 200 (2.4 ml), 25 mM Tris-HCl pH 7.5, 150 mM KCl, 0.5 mM EDTA; COR1.3 0.5 mg/ml diluted in running buffer and incubated overnight at room temperature (oxidizing conditions); also run with 1 mM DTT in the buffer (reducing conditions: dimer destabilized)

B1: codeinone reductase COR1.3 isoform (enzyme, Papaver somniferum)
chain: MESNGVPMITLSSGIRMPALGMGTAETMVKGTEREKLAFLKAIEVGYRHFDTAAAYQSEECLGEAIAEALQLGLIKSRDELFITSKLWCADAHADLVLPALQNSLRNLKLDYLDLYLIHHPVSLKPGKFVNEIPKDHILPMDYKSVWAAMEECQTLGFTRAIGVCNFSCKKLQELMAAAKIPPVVNQVEMSPTLHQKNLREYCKANNIMITAHSVLGAICAPWGSNAVMDSKVLHQIAVARGKSVAQVSMRWVYQQGASLVVKSFNEGRMKENLKIFDWELTAENMEKISEIPQSRTSSADFLLSPTGPFKTEEEFWDEKD
modifications: intermolecular disulfide bond between Cys-220 of each protomer
notes: codeinone reductase isoform COR1.3, Papaver somniferum (AAF13738; Q9SQ68.1); The methods for size-exclusion chromatography say only 'purified COR1.3'; also called apo-COR
  stoichiometry N: 2
